Test: yeast display, Sf9 membrane polyspecificity reagent, FACS + sequencing; frameworks hold sequencing errors
Summary of the method: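 A nanobody's polyreactivity label depends on the gate it was sorted from. Yeast display cells were stained with 10% biotinylated, detergent-solubilized Sf9 membrane reagent for 1 hour at 4 °C, enriched on streptavidin microbeads and sorted by FACS. The low and high (top ~1%) gates were set on anti-HA fluorescence for expression and streptavidin fluorescence for reagent binding.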

Sequence	polyreactivity (PSR sort gate)
QVQLVESGGGLGQAGGSLRLSCAASGSIFDWYAMGWYRKAPGKEGELVAAISSGDSTYYADSVKGRFTISRDNAKNTFYLQMNSLKPEDTAVYYCAAVTKLSGIRYNYWGQGTQVTVSS	low polyreactivity
QVQLVESGGGLGQAGGSLRLSCAASGSIFITYAMGWYRQAPGKERELVAAIRRGGRTNYADSVKGRFTISRDNAKNTVYLQMNSLKPEDTAVYYCAAEFRTGWPYYPDYAYDYWGQGSQVTVSS	low polyreactivity
QVQLVESGGGLGQAGGSLRLSCAASGSIFPDYVMGWYRQAPGKARELVAAISRGGSTYYADSVKGRFTISRDNAKNTVYLQMNSLKPEDTAVYYCAADNPHWRYEYWGPGTQVTVSS	high polyreactivity
QVQLVESGGGLHQAGGSLRLSCAASGSTYASNARGWYRQAPGKETELVAAITSRDASTYYADSVKGRFTISRDYAKNTVYLQMNRLKPEDTAVYYCATDGYSPAAFDYWGQGTQVTVSS	low polyreactivity
QVQLVESGGGLIQAGGSLRLSCAASGSTFANNAMGWYRPAPGKERELVAAISYNGGSTYYADSVKGRFTISRDNAKNTVYLQMNSLKPEDTAVYYCAAYHFRAPSEYDYWGQGTQVTVSS	low polyreactivity
QVQLVESGGGLIQAGGSLRLSCATSGSIFDDYAMGWYRQAPGKERELVAAISSSGTSTYYADSVKGRFTISRDNAKNTVYLQMKSLKPEDTAVYYCAARSAILKSGYLMDYWGQGTQVTVSS	low polyreactivity
QVQLVESGGGLLKAGGSLRLSCAASGIIFDSYAMGWYIQAPGKERELVAAITSDSGRTYYADSVKGRFTISRDYAKNTFYLQMNSLKPEDTAVYYCAKRWEGPYDYWGQGSQVTVSS	low polyreactivity
QVQLVESGGGLLKAGGSLRLSCAASGSTFSVYAMGWYRQAPGKEREFVARITWNGGRTYYADSVKGRFTISRDNAKNTVYLQMNSLKPEDTAVYYCAARGPTVTGTGGDYWGQGTQVTVSS	high polyreactivity
QVQLVESGGGLLKEGGSLRLICAASGRIFVGYDMGWYRQEPGKERELVAAISSDGGSTYYSDSVKGRFTISRDNAKNTVYLQMNSVKPEDTAFYYCAADDFSTVEYDYWGQGTQVNVSS	low polyreactivity
QVQLVESGGGLLQAGASLRLSCAASGRTIYRYAMGRYRQAPGKERELVAAITRRGVNTYYADSVKGRFTISRDNAKNTVYLQMYSLKPVDTAVFYCNAAYSSRYDYCGQGTQVTVSS	high polyreactivity
QVQLVESGGGLLQAGCSLRISCAASGFIFYKYVMGWYRPAPGKERELVAAINWSGGSTYYADSVKGRFTISRDNAKNTVYLQMNSLKQEDTAVYYCNAARRSKGGLNDYYWGQGTQVTVSS	high polyreactivity
QVQLVESGGGLLQAGGILRLSCAASGRTFGLYAMRWYRQAPGKERELVAAIRGSAGSTYYADSVKGRFTISRDNAKNTVYLQMNSLKPEDTAVYYCATVGYPSLWYGYGYWGQGTQVTVSS	low polyreactivity
QVQLVESGGGLLQAGGRLRLSCAASGGIFQGYAMGWYRQAPGKERELVAAISRSGGRTYYADSVKGRFTISRDNAKNTVYLQMNSLKPEDTAVYYCAKSQSAKGGYDYWGQATQVTVSS	high polyreactivity
QVQLVESGGGLLQAGGSLLLSCAASGSIFDTNAMGWYRQAPGTERELVAAISWSDTSTYADSVKGRFTISRDNAKNTVYLQMNSLKPEDTAVYYCATDTRSQAYYYWGQGTQVNVSS	low polyreactivity
QVQLVESGGGLLQAGGSLRLICAASGFIVRRYAMGWYRQAPGKARELVAAITSGGSTYYADSVKGRFTISRDNAQYTVYLQFNSMKPVDTADYYCNAYFTGKWYDYWGQGTQVTVSS	high polyreactivity
QVQLVESGGGLLQAGGSLRLSCAASGFTFSYYAKGWYRQAPGKERELVAVISDRGGITYYADSVKGRFTISRDNAKNTVYLQMNSVKPEDTAVYYCAADLDSWYGYYYIVEYWGQGTQVTVSS	low polyreactivity
QVQLVESGGGLLQAGGSLRLSCAASGFTIKYYAMGWYRPAPGKERELVAAIRGSGAGTYYADSVKGRFTISRDNAKNTVYLQMNSLKPEDTAVYYCNKRWTYQWDDYWGQGTQVTVSS	high polyreactivity
QVQLVESGGGLLQAGGSLRLSCAASGIIFFKYAMGWYRQAPGKERELVAAINRSGGSTYYADSVKGRFTISRDNAKNSVSLQMNSLKPEDTAVYYCNARLTLRSYDYWGQGTQVTVSS	low polyreactivity
QVQLVESGGGLLQAGGSLRLSCAASGIIFRWYAMGWYSQAPGKERELVATITRSGGSTYYADSVKGRFTISRDNAKKTVYLLMKSLKPEDTAVFYCATGRYPSGRPTRNYDSVYWGHGTQVTVSS	high polyreactivity
QVQLVESGGGLLQAGGSLRLSCAASGITFLGYAMGWYRQATWKERELVAAISISGDTYYADSEKGRFTISRDNAKNTVYLQMNSLKPEDTAVYYCAAVQSYAGFEYGYWGQGTQVTVSS	high polyreactivity
QVQLVESGGGLLQAGGSLRLSCAASGITFRRNTMGWYREAPGKVRELVATISWRGGNTFYADSVKGRCTISRDNAKNTVYLQMNSRKPEDTAVYYCAAYSPYITRPGYAPYGYWGQATQVTVSS	high polyreactivity
QVQLVESGGGLLQAGGSLRLSCAASGITLSYYVMGWYRQAPGKERELVAAINQSGSRTYYADSVKGRFTISRDNPKNSVYLQMNSLKPEDTAVYYCAGVFSYQPTSGYGYWGQGTQVTVSS	high polyreactivity
QVQLVESGGGLLQAGGSLRLSCAASGLIFGYYAMGWYRQAPGKERELVGAITSSGTSTYYADSVKGRFTISRDNAKNTVYLQMNSLKPEDTAVYYCAAQYIGKKRFNYWGQGTQVTVSS	high polyreactivity
QVQLVESGGGLLQAGGSLRLSCAASGNIFTYYAMGWYRQAPGKERDLVAAIRWRSGSTYYADSVKGRFTISRDNAKNTVYLQMNSLKPEDTAVYYCADDGTPYEYDYWGQGTQVTVSS	low polyreactivity
QVQLVESGGGLLQAGGSLRLSCAASGRIFGSYAMGWYRPAPGKERELVAAINWRGGSTFYADSVKGRFTISRDNAKNTVYLQMNSLKPEDTAVYYCARRGYRQSGDYWGQGSQVTVSS	low polyreactivity
QVQLVESGGGLLQAGGSLRLSCAASGRIFRYYAMVWYIQAPVKERELVAGISWTGGTTYYADSVNGRFTISLDNAKNSVYLQMYSLKPEDSAVDYCIVRRSTLYDYWGQGTQVTVSS	high polyreactivity
QVQLVESGGGLLQAGGSLRLSCAASGRNFRLYPMGWYRQAPGTERDFLAAITFSGGRTYYADSVKGRFTISRDNAKNTVYLQMKSLKPEDTAVYYCAARGQTGYYSGVGYWGLGTQVTVSS	high polyreactivity
QVQLVESGGGLLQAGGSLRLSCAASGRNFRYYAMGWYRQAPRKERELVAAITRGGRTNYADSVKGRFTISRDNAKNTVYLQMNSLKPEDSAVYYCAADYTKYYRRYYYWGQGTQVTVSS	high polyreactivity
QVQLVESGGGLLQAGGSLRLSCAASGRTFGYYAMGWYRQAPGKERELVAAISKSGGRTYYADSVKGRFTISRDNAKNTVYLQMNSLKPEDTAVYYCAADGGAIVPYYENYYWGQGTQVTVSS	high polyreactivity
QVQLVESGGGLLQAGGSLRLSCAASGRTFYRYAMGWYRQAPGKERELVAAITWSGGSTYYADSVKGRFTTSRDNAKNTVYLQMNSLKPEDTAVYYCARRLYPYRPTAYDYWGQGTQVTVSS	low polyreactivity

Reference: the nanobody polyreactivity screen of Harvey et al. (2022)
